Laboratory results reported in article PMC4491177, “Co-translational capturing of nascent ribosomal proteins by their dedicated chaperones” (Nature Communications, 2015).

Experiments:
[1] = soluble expression in E. coli; assay type: physicochemical; conditions: data not shown for Rpl10
RPL3 mRNA = test: co-translational capturing by qRT-PCR, RPL3 mRNA; assay type: binding, S. cerevisiae; conditions: NTAP-Rrb1 purification, cycloheximide-treated cells; one representative experiment, qPCR triplicates
Procedure: (§1) Cells expressing Sqt1-TAP, NTAP-Rrb1, Syo1-FTpA and Yar1-TAP were grown at 30 °C in 400 ml YPD medium to an optical density (OD600) of 0.8, then cycloheximide was added to a final concentration of 0.2 mg ml^−1 and the flasks were kept, with intermittent vigorous shaking, on ice for 5 min. Cells were harvested by centrifugation for 5 min at 4 °C at 4,000 r.p.m., washed once with 20 ml of ice-cold lysis buffer (100 mM NaCl, 50 mM Tris-HCl (pH 7.5), 1.5 mM MgCl2, 0.1% NP-40 and 5% glycerol) containing 1 mM PMSF and 0.2 mg ml^−1 cycloheximide (lysis buffer-PC) and resuspended in 2 ml of lysis buffer-PC. Equal volumes of the resuspended cells were transferred into two 2.2 ml Eppendorf tubes, briefly centrifuged and resuspended in 600 μl of ice-cold lysis buffer-PC. To prevent RNA degradation, 4 μl of RiboLock (40 U μl^−1; Fermentas) was added. Then glass beads, corresponding to 1/3 of the lysis buffer volume, were added and the tubes were vigorously vortexed for 10 × 30 s with 30-s intervals on ice. Cell extracts were transferred to a new tube and, to maximize the yield, 400 μl of ice-cold lysis buffer-PC was used to rinse the glass beads. […]
(§2) For RNA isolation from the TEV eluate aliquot (∼450 μl), the TEV eluate was adjusted to 10 mM EDTA (pH 8.0) and 0.5% SDS. […] RNA concentrations (A260) were determined using a NanoDrop 1000 spectrophotometer (Thermo Scientific). […]

sqt1 mutant cells = test: in vivo ribosomal protein solubility assay; assay type: cell-based, S. cerevisiae; conditions: expressed for 20 min from copper-inducible promoter; in sqt1.E315A and sqt1.E110A/D420A mutant cells; 200,000g 1 h
Procedure: The sqt1 mutant cells, either containing empty vector or a centromeric plasmid expressing Sqt1 from the ADH1 promoter, were grown in a volume of 100 ml to an OD600 of ∼0.7 and expression of C-terminally 2xHA-tagged Rpl10 was induced for 20 min from the CUP1 promoter with 500 μM copper sulfate. After harvesting, cells were lysed with glass beads in a buffer containing 50 mM Tris-HCl (pH 7.5), 100 mM NaCl, 1.5 mM MgCl2, 5% glycerol and 0.1% NP-40, and cell extracts were centrifuged for 3 min at 3,000 r.p.m. Then, total cell extracts, 10 A260 units in a final volume of 500 μl, were subjected to centrifugation at 200,000g for 1 h. Pellets were resuspended in 100 μl lysis buffer and equal amounts of the total extracts (T), soluble extracts (S) and pellet fractions (P) were analysed by SDS–polyacrylamide gel electrophoresis and western blotting using an anti-HA antibody.
Supplementary Figure 9 Sqt1 is required for the soluble expression of Rpl10 in yeast.
Expression of C-terminally 2xHA-tagged Rpl10 (Rpl10-2xHA) was induced for 20 min from the CUP1 promoter with 500 µM copper sulfate in sqt1.E315A or sqt1.E110A/D420A mutant cells containing empty vector (vector) or a plasmid expressing Sqt1 from the constitutive ADH1 promoter (SQT1). […]

RPS3 mRNA = test: co-translational capturing by qRT-PCR, RPS3 mRNA; assay type: binding, S. cerevisiae; conditions: Yar1-TAP purification, cycloheximide-treated cells; one representative experiment, qPCR triplicates
Procedure: as §1, §2

RPL5 mRNA = test: co-translational capturing by qRT-PCR, RPL5 mRNA; assay type: binding, S. cerevisiae; conditions: Syo1-FTpA purification, cycloheximide-treated cells; one representative experiment, qPCR triplicates
Procedure: as §1, §2

B1: Rrb1: dedicated chaperone of Rpl3; purified as NTAP-Rrb1 in b27 (protein, UniProt Q04225 1-511, looked up)
Ribosome assembly protein RRB1: MSKRSIEVNEEQDRVVSAKTESHSVPAIPASEEQDAPKNDLEEQLSDEFDSDGEIIEIDGDDEINDEDDLRKKQEEAETLVQKDQSEGNKEKIQELYLPHMSRPLGPDEVLEADPTVYEMLHNVNMPWPCLTLDVIPDTLGSERRNYPQSILLTTATQSSRKKENELMVLALSNLAKTLLKDDNEGEDDEEDDEDDVDPVIENENIPLRDTTNRLKVSPFAISNQEVLTATMSENGDVYIYNLAPQSKAFSTPGYQIPKSAKRPIHTVKNHGNVEGYGLDWSPLIKTGALLSGDCSGQIYFTQRHTSRWVTDKQPFTVSNNKSIEDIQWSRTESTVFATAGCDGYIRIWDTRSKKHKPAISVKASNTDVNVISWSDKIGYLLASGDDNGTWGVWDLRQFTPSNADAVQPVAQYDFHKGAITSIAFNPLDESIVAVGSEDNTVTLWDLSVEADDEEIKQQAAETKELQEIPPQLLFVHWQKEVKDVKWHKQIPGCLVSTGTDGLNVWKTISV
soluble expression in E. coli [1]: inefficient expression of soluble Rrb1 | enrichment of the specific ribosomal protein mRNA (RPL3) (RPL3 mRNA): roughly 100 -fold

B2: Rpl10-2xHA: C-terminally 2xHA-tagged Rpl10 (protein)
chain: MARRPARCYRYQKNKPYPKSRYNRAVPDSKIRIYDLGKKKATVDEFPLCVHLVSNELEQLSSEALEAARICANKYMTTVSGRDAFHLRVRVHPFHVLRINKMLSCAGADRLQQGMRGAWGKPHGLAARVDIGQIIFSVRTKDSNKDVVVEGLRRARYKFPGQQKIILSKKWGFTNLDRPEYLKKREAGEVKDDGAFVKFLSKKGSLENNIREFPEYFAAQA
modifications: left off: 2xHA, C-terminal, kept
notes: C-terminally 2xHA-tagged Rpl10
solubility of newly synthesized Rpl10-2xHA (sqt1 mutant cells): strongly reduced

B3: Yar1: ankyrin-repeat protein, chaperone of Rps3 (protein)
chain: MGLHSEPLDQEDQDTIILDARAGDLDSLKDIFTTLVSPELLSTCKESESDSTALHMAAANGHIETVRYILETVSRANSAEDLKAFVNEVNKTGNTALHWASLNGKLDVVKLLCDEYEADPFIRNKFGHDAIFEAENSGKEEVETYFLKKYDVEPEDDEEDTQTEGKNSVQITKGTEIEQVTKEATEALREETEKLNINKD
modifications: left off: TAP, end not stated, kept
notes: ankyrin-repeat protein, chaperone of Rps3
enrichment of the specific ribosomal protein mRNA (RPS3) (RPS3 mRNA): roughly 100 -fold

B4: Syo1: transport adaptor, chaperone of Rpl5 (and Rpl11) (protein)
chain: MGRSKKRSRASSSRLNPLRKAGSNDNNKDTNVVNKKLQPLLQNLSSVVPNDRSIALSSISVLCEDAHMRQLLLKEKLVPIILNKLLNDSNSDIVVESFGLLRNLSLEEGYDVSIYLWRSDIWTSITSNFGRIVESLSALQAAEQQPQLKPAGKSKIESKRLLFDFADNLLSLVVALSNGSDDILNEILTESKINEIFQVISQLLKYGVEKLPINLFNTTLDLIYDLSSESFEFIDHVSNNELLSQFLNGLSPALHPQANELTKVLIEGIHCQFLDMKITYDQCNKMIHSVCHSINNIDPVQLVNDINNPVEIGPATSKDESSKVITKIKDYNAKRNESMIKLQSIEIAIDLITAIIEIVASKYESPESQEVAIPEELINTLTNFLPHVFMILKDTFTSRILIGWNNLIWLFVSLSLTELSGELLTTLWSYVTQLDSQDDLSIKIGRMGCIWALLKLIFPDGAFESENRALINVQMLNNSGFARGIIEEFQNNNDLELQQKCINVLSTYAMIQGQIDANKEIGQFFIQTLTQLNVRPEILIEMTNSLFQIYGDASYDYNEPIFVRGGFLSILKDQVVPNLRQQFKMVDKNKNPELKERCHDCFTTLDSFIHYKMNENSTNQ
modifications: left off: FTpA, end not stated, kept
enrichment of the specific ribosomal protein mRNA (RPL5) (RPL5 mRNA): roughly 100 -fold
